According to the RNAGym collection of RNA variant scans (doi:10.1073/pnas.2313332121):
Fewer inactive variants are shown than the library holds.

B1: TPR 5TU (parent)
chain: GGAUCUUCUCGAUCUAACAAAAAAGACAAAUCUGCCACAAAGCUUGAGAGCAUCUUCGGAUGCAGAGGCGGCAGCCUUCGGUGGCGCGAUAGCGCCAACGUUCUCAACUAUGACACGCAAAACGCGUGCUCCGUUGAAUGGAGUUUAUCAUG

Variants of: B1
Assay: polymerase ribozyme fitness, log enrichment relative to wild type (log ratio); higher = more active; in vitro selection for triplet polymerase activity
Method in brief: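 For each subunit of a heterodimeric triplet polymerase ribozyme, a mutant library was built by PCR and transcribed, then taken through a single in vitro selection round in triplicate. Selection involved annealing to a biotinylated primer, the partner subunit and triplets, incubation frozen at −7 °C, gel excision of extended constructs, capture on streptavidin beads and RT-PCR. Genotypes were retained after Illumina sequencing of inputs and outputs only with ≥10 input reads and ≥1 read in each output. Fitness is defined as the logarithm of a genotype's enrichment relative to wild-type enrichment, using inverse-variance-weighted averages across replicates, with the logarithm taken to base 2.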

| Variant | polymerase ribozyme fitness (log ratio) |
| --- | --- |
| C27U A47G C93A | -4.19 |
| A28U C79A C87G C96G | ≤ -4.2 |
| A26G G58A C105G G117C U127G | ≤ -4.2 |
| A26U C85A | -2.68 |
| C27A G58A G84A | ≤ -4.2 |
| A28C A41U C43U G46C C85A U130G U135C | ≤ -4.2 |
| G25U A52G U56A A60G G133C | -4.06 |
| C27U C76G G84U | ≤ -4.2 |
| A26C C85A G94C | -1.83 |
| C27U A120G C125A | -1.81 |
| A28U G88A G94A C99G C103G U104A A107G | ≤ -4.2 |
| A28U C85A | -4.11 |
| A29C A39G U139A | ≤ -4.2 |
| C27G A52C U53A A64G C69A U78A C79A C87G G94C C95A A142C | ≤ -4.2 |
| C27G C35U G74U C118U U130A A137U | ≤ -4.2 |
| A28U G42U G59C A64C U78C C87A | ≤ -4.2 |
| A26U C75U U148G | ≤ -4.2 |
| A26U U82A A106C | -3.93 |
| C27U U33C A73G C85U | -0.859 |
| A28U C79G | ≤ -4.2 |
| A26G C27G C87U U148A | ≤ -4.2 |

| Variant | polymerase ribozyme fitness (log ratio) |
| --- | --- |
| A28U G83A C116U U145A | ≤ -4.2 |
| C27G A30G A39U C87A | ≤ -4.2 |
| A28U C35U A91U C132U | -3.89 |
| A26U C54A G65A A98G | -4.2 |
| C27A U53A A119C | ≤ -4.2 |
| A28U A40U A49C G68U U90G C96U A107G A110C | ≤ -4.2 |
| A28G A106G U134G | ≤ -4.2 |
| C27G C85G G88A G100C U148G | ≤ -4.2 |
| C27G C32G C36G A73G C93G U135A | -4.18 |
| C27G A39G C93G G112A C129G | ≤ -4.2 |
| C27U G48A C69A C96A A121G | ≤ -4.2 |
| C27A C93U C116U G126A A147G | ≤ -4.2 |
| A28C C57U U82C C85G U111G A137U | ≤ -4.2 |
| C27G A29C C87G A121U | ≤ -4.2 |
| A26C C51U A66G U77A C149G | ≤ -4.2 |
| A28U A37C U139C U151G | ≤ -4.2 |
| A28C U144G | -4.03 |
| A26C C105U | -2.13 |
| A26U A122G C131A | -3.89 |
| A29C A37G G65C C75G U77A A97G C118U C123U | ≤ -4.2 |
| C27U A52G G92A C96U G133A | ≤ -4.2 |

| Variant | polymerase ribozyme fitness (log ratio) |
| --- | --- |
| A26U C85U C105U | -1.82 |
| A28C A47C G62C C108G A122C | ≤ -4.2 |
| A28C U31G G50C A52C G74A G80U G86U A121U | ≤ -4.2 |
| A28G A49C C76U G94U A150G | ≤ -4.2 |
| A26U G46U G58A A73U C85G U111G | ≤ -4.2 |
| A28C A52G G88C A89G U101C C105G | ≤ -4.2 |
| A29C A30U G42U C93U C105G U139G | ≤ -4.2 |
| A28U G67C U77A U90C C95U C105U A142G | ≤ -4.2 |
| A26U C35A U104G A150C | ≤ -4.2 |
| A28G A29U A89C G141C | ≤ -4.2 |
| A28C A39C C54G U61A C99U | ≤ -4.2 |
| C27A U56A | -3.7 |
| A28C A39U G48C G70A G84C C93G G140U | ≤ -4.2 |
| A29C A49G C69G U77G C79U C116U U146A | ≤ -4.2 |
| C27U G34U C93U G112C U148G | ≤ -4.2 |
| A26C C87U A122G A142G | -3.94 |
| A28U C36G C85G G94A C131G | ≤ -4.2 |
| C27G C75G C93A C103G U134A | ≤ -4.2 |
| G25U A49G A52U U90G C125G A142U G143C | ≤ -4.2 |
| C27G G84A G136U | ≤ -4.2 |
| A26G U31A G48A A60C C76G A107C A119U | ≤ -4.2 |

| Variant | polymerase ribozyme fitness (log ratio) |
| --- | --- |
| A29C A37C G74A A97G U130A | ≤ -4.2 |
| C27U A64G C75G G86A C105U | -4.19 |
| A26C U61A A64U C85A A110C | ≤ -4.2 |
| A28G A41G U45A G94C A97U | -3.76 |
| A26C A52C | -3.22 |
| A26G U53A C85U A91G G133A U139A | ≤ -4.2 |
| C27U U55A G68U C85G | ≤ -4.2 |
| A28G A29U | -3.79 |
| A28G G94C G100U U134G | ≤ -4.2 |
| A26U U31G G42C C93G A137G | ≤ -4.2 |
| C27A A29G U33G C35A A60G C93G A97G A120U G133U U134G | ≤ -4.2 |
| C27G C36G C85U | ≤ -4.2 |
| A28G U53A G84U G140A | ≤ -4.2 |
| A29C A52C G88U | ≤ -4.2 |
| C27G C54A | -3.98 |
| A28U U55G C85G G88A A89U C103U G143C | ≤ -4.2 |
| G25U A29U G62U C85G A142C | ≤ -4.2 |
| A26U C87G | ≤ -4.2 |
| A26U C87U | -1.74 |
| G25U A52C C63U G88C U127C | ≤ -4.2 |
| C27U C72U G88A G94A G152A | -4.19 |
